pKd: −log10 of the molar value. Bounds are passed on as bounds.

One assay has as its target HLA-A*32:01. Put plainly: IEDB peptide-MHC binding, purified MHC/competitive/radioactivity; filed as Kd, often an IC50 or EC50 that approximates it; ≥ and ≤ were set here for values at or beyond the usual limits of such assays.
The target in the next assay is HLA-A*01:01. Described as above.
Another assay deals with HLA-A*30:01. The description is as above.
In the next assay the target is HLA-A*26:01. The assay is described as above.
Another assay addresses HLA-A*29:02. The assay is described as above.
The next assay addresses HLA-A*30:02. Described as above.
The next assay concerns the target HLA-A*68:02. Described as above.
For another assay, the target named is HLA-A*02:06. The assay is described as above.
A further assay deals with HLA-B*51:01. Described as above. The conditions noted are these: source organism: Dengue virus 3 Martinique/1243/1999.
The target of a further assay is HLA-A*02:02. The assay is described as above.
The next assay addresses HLA-A*02:03. The description is as above.
Another assay addresses HLA-A*23:01. The assay is described as above. The conditions noted are these: source organism: Mammarenavirus guanaritoense.
In a further assay the target is HLA-A*24:02. The description is as above. The conditions noted are these: source organism: Mammarenavirus guanaritoense.
For the next assay, the target named is HLA-B*58:01. Put plainly: IEDB peptide-MHC binding, purified MHC/direct/fluorescence; filed as Kd, often an IC50 or EC50 that approximates it; ≥ and ≤ were set here for values at or beyond the usual limits of such assays.
In the next assay the target is HLA-B*57:01. Described as above.
The next assay addresses HLA-B*07:02. The description is as above. The conditions noted are these: source organism: Homo sapiens.
A further assay addresses HLA-B*15:01. The assay is described as above. The conditions noted are these: source organism: Homo sapiens.
The target in another assay is HLA-A*11:01. Put plainly: IEDB peptide-MHC binding, purified MHC/competitive/radioactivity; filed as Kd, often an IC50 or EC50 that approximates it; ≥ and ≤ were set here for values at or beyond the usual limits of such assays. The conditions noted are these: source organism: Vaccinia virus WR.
For a further assay, the target named is HLA-A*31:01. Described as above. The conditions noted are these: source organism: Vaccinia virus WR.
The target in a further assay is HLA-A*33:01. The assay is described as above. The conditions noted are these: source organism: Vaccinia virus WR.
A further assay deals with HLA-A*03:01. Described as above. The settings on record: source organism: Vaccinia virus WR.
In another assay the target is HLA-A*68:01. The description is as above. The conditions noted are these: source organism: Vaccinia virus WR.
A further assay addresses HLA-B*08:01. Kind of assay: IEDB peptide-MHC binding, purified MHC/direct/fluorescence; filed as Kd, often an IC50 or EC50 that approximates it; ≥ and ≤ were set here for values at or beyond the usual limits of such assays. The conditions noted are these: source organism: Coxiella burnetii Q321.
Setting [1] is: source organism: Mammarenavirus lassaense.
Where [2] appears, read: source organism: Vaccinia virus WR.
Setting [3] is: source organism: Vaccinia virus Copenhagen.
Where [4] appears, read: source organism: Dengue virus 2 Jamaica/1409/1983.
Where [5] appears, read: source organism: Dengue virus 3 Martinique/1243/1999.
[6] abbreviates: source organism: Dengue virus 4 Dominica/814669/1981.
[7] abbreviates: source organism: Trypanosoma cruzi.
[8] abbreviates: source organism: Mammarenavirus guanaritoense.
[9] abbreviates: source organism: Dengue virus 4 Philippines/H241/1956.
Setting [10] is: source organism: Toxoplasma gondii.
[11] abbreviates: source organism: Lassa virus Josiah.
[12] abbreviates: source organism: Lymphocytic choriomeningitis virus (strain Armstrong) (clone 53b).
[13] abbreviates: source organism: Brucella abortus 2308.
Where [14] appears, read: source organism: Mammarenavirus brazilense.

Consider ASPILRFLY, for which the pKd in the assay with HLA-A*32:01 (setting [1]) is 5.96; with HLA-A*01:01 (setting [1]), 6.48; in the assay with HLA-A*30:01 (setting [1]), at most 4.11; with HLA-A*26:01 (setting [1]) it was 5.02; with HLA-A*29:02 (setting [1]) it was 7.04; with HLA-A*30:02 (setting [1]), 7.01.
Regarding ATFTVNIFK, in the assay with HLA-A*30:01 (setting [2]), the pKd is 8.50.
Take AVKDVTITK: the pKd in the assay with HLA-A*30:01 (setting [2]) was 8.67.
Regarding AVSFSSPIS, the pKd in the assay with HLA-A*30:01 (setting [2]) was 5.88.
With CARISSRES, the pKd with HLA-A*30:01 (setting [3]) was 6.23.
As for CTILAVVSV, the pKd in the assay with HLA-A*68:02 (source organism: Dengue virus 2 16681-PDK53) is 7.27.
On to EAIMAVGMV, for which the results for the negative logarithm of the Kd (pKd) in the assay with HLA-A*68:02 (setting [4]) and with HLA-A*26:01 (setting [4]) were 8.75 and 7.36, respectively.
As to ELRRQVDQL, the pKd with HLA-A*68:02 (source organism: Homo sapiens) was 5.92.
Regarding ETYQLWTALI, the pKd with HLA-A*68:02 (setting [5]) was 8.64; in the assay with HLA-A*26:01 (setting [5]), 6.94.
On to EVLTLATGPI, for which the negative-log Kd (pKd) with HLA-A*68:02 (setting [6]) is 7.00; in the assay with HLA-A*26:01 (setting [6]) it was 4.98.
Turning to FTMTHRRPTI, the negative logarithm of the Kd (pKd) with HLA-A*02:06 (setting [5]) was 6.19; in the assay with HLA-A*68:02 (setting [5]), 6.94; with HLA-B*51:01 it was at most 4.69.
Consider FVNYNFTLV, for which the pKd was 11.51 in the assay with HLA-A*02:06 (setting [7]), 9.47 in the assay with HLA-A*68:02 (setting [7]), 7.98 in the assay with HLA-A*02:02 (setting [7]) and 9.12 with HLA-A*02:03 (setting [7]).
Turning to GEKSRCYSLY, the negative-log Kd (pKd) with HLA-A*23:01 was at most 4.35; with HLA-A*32:01 (setting [8]) it was at most 4.16; in the assay with HLA-A*01:01 (setting [8]) it was at most 4.37; in the assay with HLA-A*30:01 (setting [8]), 5.16; in the assay with HLA-A*26:01 (setting [8]) it was at most 4.16; with HLA-A*29:02 (setting [8]) it was at most 5.00. For the same sequence, the pKd with HLA-A*30:02 (setting [8]) is 6.12; in the assay with HLA-A*24:02 it was at most 4.15.
Regarding GLLPSLLLLL, the pKd with HLA-A*02:06 (setting [7]) is 8.14; with HLA-A*68:02 (setting [7]), at most 4.48; with HLA-A*02:02 (setting [7]) it was 8.51; with HLA-A*02:03 (setting [7]) it was 8.74.
GVVTRSGAYV: the negative logarithm of the Kd (pKd) with HLA-A*68:02 (setting [4]) was 6.48.
For the sequence HTHLSNQNL, in the assay with HLA-A*30:01 (setting [2]), the pKd is 8.24.
Regarding KGFYASPSV, in the assay with HLA-A*30:01 (setting [2]), the pKd was 8.57.
As to KLEGDSTDL, the pKd with HLA-A*68:02 (source organism: Homo sapiens) is 5.69.
As to KNRLNALGK, in the assay with HLA-A*30:01 (source organism: Dengue virus 2 Peru/IQT2913/1996), the pKd was 6.85.
As for KSKQLKSFL, the pKd with HLA-A*30:01 (setting [2]) is 7.88.
On to KTKTDFGFY, for which the pKd with HLA-A*01:01 (setting [9]) was 5.20; in the assay with HLA-A*30:01 (setting [9]) it was 8.54; in the assay with HLA-A*30:02 (setting [9]), 8.81.
As to KTSGRGSCM, the pKd with HLA-B*58:01 (setting [10]) was 5.22; with HLA-B*57:01 (setting [10]), at most 4.70.
Consider KVVRVQRPAK, for which the pKd with HLA-A*30:01 (source organism: Dengue virus 1 Brazil/97-11/1997) is 8.21.
Consider KVYIGYCMA, for which the pKd with HLA-A*30:01 (setting [2]) was 8.59.
Turning to LIALSVLAV, the pKd with HLA-A*02:06 (setting [11]) was 6.47; in the assay with HLA-A*68:02 (setting [11]) it was 6.49; with HLA-A*02:02 (setting [11]), 6.93; with HLA-A*02:03 (setting [11]), 8.58.
Turning to LLEGEEERL, the pKd was at most 4.69 with HLA-A*02:06 (source organism: Homo sapiens) and at most 3.87 with HLA-A*68:02 (source organism: Homo sapiens).
Consider LLGLWGLATA, for which the negative-log Kd (pKd) with HLA-A*02:06 (setting [7]) was 7.24; in the assay with HLA-A*68:02 (setting [7]), 6.39; with HLA-A*02:02 (setting [7]) it was 8.77; in the assay with HLA-A*02:03 (setting [7]), 8.86.
With LPHQPLATY, the negative logarithm of the Kd (pKd) was 5.22 with HLA-B*07:02 and 5.63 in the assay with HLA-B*15:01.
MSPGYVLGV: in the assay with HLA-A*68:02 (setting [6]), the pKd is 7.00.
In the case of MTAGIFLFFM, the negative-log Kd (pKd) with HLA-A*68:02 (setting [9]) is 7.98; with HLA-A*26:01 (setting [9]) it was 7.80.
Take NARLMRALK: the pKd with HLA-A*30:01 (setting [2]) is 8.65.
For NLQKESRACL, in the assay with HLA-A*68:02 (source organism: Homo sapiens), the negative-log Kd (pKd) was 4.71.
Turning to PLNDNIATLL, the negative logarithm of the Kd (pKd) with HLA-A*68:02 (source organism: Homo sapiens) was 5.13.
Turning to RAILGCAQA, the pKd with HLA-A*30:01 (setting [2]) is 5.63.
RFRTVLISK: the pKd in the assay with HLA-A*30:01 (setting [3]) is 8.34.
RQLQKIERW gave a pKd in the assay with HLA-B*57:01 (source organism: Yellow fever virus) of 6.39.
In the case of RTKPASAPI, the pKd with HLA-A*30:01 (setting [2]) was 9.94.
RTRYDTFKV: the pKd with HLA-A*30:01 (setting [2]) is 9.71.
For the sequence SLNQTVHSL, the pKd with HLA-A*02:06 (setting [12]) was at most 4.55; with HLA-A*68:02 (setting [12]), 4.79; with HLA-A*02:02 (setting [12]), 8.72; in the assay with HLA-A*02:03 (setting [12]), 8.62.
Regarding SSVNVSLTAI, the pKd in the assay with HLA-A*68:02 (setting [4]) was 6.74.
TTKDYFSFK: the pKd is 9.06 with HLA-A*11:01; 8.91 with HLA-A*30:01 (setting [2]); 8.88 with HLA-A*31:01; 7.75 in the assay with HLA-A*33:01; 7.74 with HLA-A*03:01; 8.97 in the assay with HLA-A*68:01.
With TTTESRCPTQ, the pKd with HLA-A*30:01 (setting [4]) was at most 4.54.
On to TVFFVLMML, for which the pKd with HLA-A*68:02 (setting [9]) is 7.44.
Consider VARGARFFL, for which the pKd with HLA-B*58:01 (setting [13]) was at most 4.70; with HLA-B*57:01 (setting [13]), 6.29.
For the sequence VSRLEHQMW, in the assay with HLA-B*57:01 (source organism: West Nile virus), the pKd is 7.04.
With VTPSMTMRCV, the pKd with HLA-A*68:02 (setting [5]) was 6.71.
Regarding YLRRRIGMI, the pKd in the assay with HLA-B*08:01 is 8.22.
For YNISRKIVY, the pKd in the assay with HLA-A*32:01 (setting [14]) was at most 4.44; with HLA-A*01:01 (setting [14]), 5.97; in the assay with HLA-A*30:01 (setting [14]) it was 5.18; in the assay with HLA-A*26:01 (setting [14]) it was 5.54; with HLA-A*29:02 (setting [14]), 5.63; with HLA-A*30:02 (setting [14]), 5.47.
Turning to YSDPKRFFL, the pKd was at most 4.11 in the assay with HLA-A*32:01 (setting [8]); 8.14 with HLA-A*01:01 (setting [8]); 5.21 in the assay with HLA-A*30:01 (setting [8]); at most 4.11 with HLA-A*26:01 (setting [8]); at most 4.67 with HLA-A*29:02 (setting [8]); 7.07 with HLA-A*30:02 (setting [8]).
